Assay results from patent US20240043515A1 (Chugai, published 2024).

T1: human FcγRIIa R extracellular domain (human, UniProt P12318 34-217)
T1 construct: extracellular domain; also called hFcγR IIa R; FcγRIIa allotype R131
T1 sequence (looked up): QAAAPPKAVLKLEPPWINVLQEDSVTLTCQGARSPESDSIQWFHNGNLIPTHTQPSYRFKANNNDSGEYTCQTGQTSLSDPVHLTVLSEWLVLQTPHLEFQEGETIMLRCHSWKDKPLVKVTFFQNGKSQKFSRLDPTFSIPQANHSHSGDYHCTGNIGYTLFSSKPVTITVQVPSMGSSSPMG

T2: human FcγRIIa H extracellular domain (human, UniProt P12318 34-217)
T2 construct: extracellular domain; also called hFcγR IIa H; FcγRIIa allotype H131
T2 sequence (looked up): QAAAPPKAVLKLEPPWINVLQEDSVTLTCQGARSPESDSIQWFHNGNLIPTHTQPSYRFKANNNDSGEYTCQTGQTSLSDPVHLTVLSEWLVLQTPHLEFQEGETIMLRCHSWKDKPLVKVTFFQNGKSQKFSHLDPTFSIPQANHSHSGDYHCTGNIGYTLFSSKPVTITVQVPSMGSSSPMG

T3: human FcγRIIb extracellular domain (human, UniProt P31994 43-217)
T3 construct: extracellular domain; also called hFcγR IIb
T3 sequence (looked up): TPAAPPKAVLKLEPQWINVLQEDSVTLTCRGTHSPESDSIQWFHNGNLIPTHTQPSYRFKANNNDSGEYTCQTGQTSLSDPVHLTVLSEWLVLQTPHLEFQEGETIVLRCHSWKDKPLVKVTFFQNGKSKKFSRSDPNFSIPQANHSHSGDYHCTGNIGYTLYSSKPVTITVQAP

T4: hFcγRIIaH on Jurkat effector cells (human, UniProt P12318 34-317)
T4 sequence (looked up): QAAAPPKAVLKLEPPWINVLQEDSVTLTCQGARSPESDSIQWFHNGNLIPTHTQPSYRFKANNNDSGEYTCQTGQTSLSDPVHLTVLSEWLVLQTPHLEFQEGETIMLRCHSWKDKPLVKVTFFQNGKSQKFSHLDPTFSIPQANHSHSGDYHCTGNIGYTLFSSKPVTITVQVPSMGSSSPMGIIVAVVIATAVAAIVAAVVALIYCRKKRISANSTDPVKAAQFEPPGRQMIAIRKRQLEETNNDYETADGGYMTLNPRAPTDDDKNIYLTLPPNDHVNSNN

B1: EGL-ART8 (H240-Kn461/L73-k0//H240-H1443/L73-k0) (antibody, human IgG1, kappa)
heavy 1: QDQLVQSGAEVKKPGASVKVSCKASGFNIKDTYIQWVRQAPGQGLEWMGRIDPLRKQTKYREKFEGRVTITADTSTNTAYMELSSLRSEDTAVYYCVRSGREFDYWGQGTLVTVSSASTKGPSVFPLAPSSKSTSGGTAALGCLVKDYFPEPVTVSWNSGALTSGVHTFPAVLQSSGLYSLSSVVTVPSSSLGTQTYICNVNHKPSNTKVDKKVEPKSCDKTHTCPPCPAPEFQWGPMVFLFPPKPKDVLMISRTPEVTCVVVDVSDEEPEVKFNWYVDGVEVHNAKTKPREEQYNATYRVVSVLPVLHQDWLNGKEYKCKVSNDALPAPEEKTISKAKGQPREPQVCTLPPSRDELTKNQVSLWCLVKGFYPSDIAVEWESNGQPENNYKTTPPVLDSDGSFFLYSKLTVDKSRWQQGNVFSCSVMHEALHNHYTQKSLSLSP
heavy 2: QDQLVQSGAEVKKPGASVKVSCKASGFNIKDTYIQWVRQAPGQGLEWMGRIDPLRKQTKYREKFEGRVTITADTSTNTAYMELSSLRSEDTAVYYCVRSGREFDYWGQGTLVTVSSASTKGPSVFPLAPSSKSTSGGTAALGCLVKDYFPEPVTVSWNSGALTSGVHTFPAVLQSSGLYSLSSVVTVPSSSLGTQTYICNVNHKPSNTKVDKKVEPKSCDKTHTCPPCPAPELLAGPSVFLFPPKPKDVLMISRTPEVTCVVVDVSHEEPEVKFNWYVDGVEVHNAKTKPREEQYNATYRVVSVLPVLHQDWLNGKEYKCKVSNDALPAPEEETISKAKGQPREPQVYTLPPSRCELTKNQVSLSCAVKGFYPSDIAVEWESNGQPENNYKTTPPVLDSDGSFFLVSKLTVDKSRWQQGNVFSCSVMHEALHNHYTQKSLSLSP
light: DIQMTQSPSSLSASVGDRVTITCRASQDIHKYIAWYQQKPGQAPRLLIQYTSTLQPGVPSRFSGSGSGTDYTFTISSLQPEDIATYYCLQYEQLRTFGGGTKVEIKRTVAAPSVFIFPPSDEQLKSGTASVVCLLNNFYPREAKVQWKVDNALQSGNSQESVTEQDSKDSTYSLSSTLTLSKADYEKHKVYACEVTHQGLSSPVTKSFNRGEC
notes: Kn461: L234F/L235Q/G236W/S239M/T250V/H268D/D270E/S298A/T307P/K326D/I332E + Y349C/T366W; H1443: G236A/T250V/D270E/S298A/T307P/K326D/I332E/K334E + D356C/T366S/L368A/Y407V
B2: EGL-GASDIE (H240-Kn037/L73-k0//H240-H1036/L73-k0) (antibody, human IgG1, kappa)
heavy 1: QDQLVQSGAEVKKPGASVKVSCKASGFNIKDTYIQWVRQAPGQGLEWMGRIDPLRKQTKYREKFEGRVTITADTSTNTAYMELSSLRSEDTAVYYCVRSGREFDYWGQGTLVTVSSASTKGPSVFPLAPSSKSTSGGTAALGCLVKDYFPEPVTVSWNSGALTSGVHTFPAVLQSSGLYSLSSVVTVPSSSLGTQTYICNVNHKPSNTKVDKKVEPKSCDKTHTCPPCPAPELLAGPDVFLFPPKPKDTLMISRTPEVTCVVVDVSHEDPEVKFNWYVDGVEVHNAKTKPREEQYNSTYRVVSVLTVLHQDWLNGKEYKCKVSNKALPAPEEKTISKAKGQPREPQVCTLPPSRDELTKNQVSLWCLVKGFYPSDIAVEWESNGQPENNYKTTPPVLDSDGSFFLYSKLTVDKSRWQQGNVFSCSVMHEALHNHYTQKSLSLSP
heavy 2: QDQLVQSGAEVKKPGASVKVSCKASGFNIKDTYIQWVRQAPGQGLEWMGRIDPLRKQTKYREKFEGRVTITADTSTNTAYMELSSLRSEDTAVYYCVRSGREFDYWGQGTLVTVSSASTKGPSVFPLAPSSKSTSGGTAALGCLVKDYFPEPVTVSWNSGALTSGVHTFPAVLQSSGLYSLSSVVTVPSSSLGTQTYICNVNHKPSNTKVDKKVEPKSCDKTHTCPPCPAPELLAGPDVFLFPPKPKDTLMISRTPEVTCVVVDVSHEDPEVKFNWYVDGVEVHNAKTKPREEQYNSTYRVVSVLTVLHQDWLNGKEYKCKVSNKALPAPEEKTISKAKGQPREPQVYTLPPSRCELTKNQVSLSCAVKGFYPSDIAVEWESNGQPENNYKTTPPVLDSDGSFFLVSKLTVDKSRWQQGNVFSCSVMHEALHNHYTQKSLSLSP
light: DIQMTQSPSSLSASVGDRVTITCRASQDIHKYIAWYQQKPGQAPRLLIQYTSTLQPGVPSRFSGSGSGTDYTFTISSLQPEDIATYYCLQYEQLRTFGGGTKVEIKRTVAAPSVFIFPPSDEQLKSGTASVVCLLNNFYPREAKVQWKVDNALQSGNSQESVTEQDSKDSTYSLSSTLTLSKADYEKHKVYACEVTHQGLSSPVTKSFNRGEC
notes: G236A/S239D/I332E in both heavy chains; Kn037 with Y349C/T366W, H1036 with D356C/T366S/L368A/Y407V
B3: EGL-afucosyl (H240-G1d/L73-k_glycomab) (antibody)
heavy: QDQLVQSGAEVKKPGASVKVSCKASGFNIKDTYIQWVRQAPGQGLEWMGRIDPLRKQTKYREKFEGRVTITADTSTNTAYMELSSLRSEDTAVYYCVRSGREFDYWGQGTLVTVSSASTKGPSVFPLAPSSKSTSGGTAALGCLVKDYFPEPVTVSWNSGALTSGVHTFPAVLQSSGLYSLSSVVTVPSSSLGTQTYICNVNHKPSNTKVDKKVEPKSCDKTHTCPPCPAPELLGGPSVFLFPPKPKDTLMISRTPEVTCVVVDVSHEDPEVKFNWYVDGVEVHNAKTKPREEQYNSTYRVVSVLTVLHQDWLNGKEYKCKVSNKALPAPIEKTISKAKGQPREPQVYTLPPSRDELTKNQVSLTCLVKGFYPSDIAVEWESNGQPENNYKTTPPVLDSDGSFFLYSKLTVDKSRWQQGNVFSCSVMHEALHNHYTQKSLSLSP
light: DIQMTQSPSSLSASVGDRVTITCRASQDIHKYIAWYQQKPGQAPRLLIQYTSTLQPGVPSRFSGSGSGTDYTFTISSLQPEDIATYYCLQYEQLRTFGGGTKVEIKRTVAAPSVFIFPPSDEQLKSGTASVVCLLNNFYPREAKVQWKVDNALQSGNSQESVTEQDSKDSTYSLSSTLTLSKADYEKHKVYACEVTHQGLSSPVTKSFNRGEC
modifications: afucosylated (fucose-deficient sugar chain) ; Afucosylated (fucose-deficient) N-glycan at Asn297 (EU) of each heavy chain; the letters cannot carry this.
notes: Same heavy chain as EGL-G1d, produced as a fucose-deficient antibody; also called afucosylated antibody

How the values were obtained:
[1] = biological target: T5, human FcγRIIIa F extracellular domain (human, UniProt P08637 17-208); experiment: SPR; KD of G1d divided by KD of this antibody
T5 construct: extracellular domain; also called hFcγR IIIa F; FcγRIIIa allotype F158
T5 sequence (P08637 17-208): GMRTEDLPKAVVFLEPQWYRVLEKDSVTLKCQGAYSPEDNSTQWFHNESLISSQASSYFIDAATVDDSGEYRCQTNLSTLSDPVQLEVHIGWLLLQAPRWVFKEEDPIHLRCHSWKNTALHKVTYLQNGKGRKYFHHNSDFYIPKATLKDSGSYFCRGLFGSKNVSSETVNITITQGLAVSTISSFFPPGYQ
Description: (§1) The extracellular domains of FcγRs were produced by the method described in WO2014104165. The interaction between the produced antibodies and human FcγRs was analyzed using Biacore 8K+ by the method below. For the running buffer, 50 mM Na-Phosphate, 150 mM NaCl, and 0.05% Tween20 (pH 7.4) was used, and measurement was performed at 25° C. The sensor chip used was a Series S SA chip (GE Healthcare) onto which CaptureSelect Human Fab-kappa Kinetics Biotin Conjugate (Thermo Fisher Scientific) was immobilized. An antibody of interest was captured onto this chip, and each FcγR diluted with the running buffer was allowed to interact with it. The chip was regenerated using 10 mM Glycine-HCl (pH 1.5), and repeatedly used to capture antibodies and perform measurement. The dissociation constants KD (mol/L) of each antibody for FcγRs were calculated using Biacore Insight Evaluation Software, with a steady state affinity model for the dissociation constant for FcγRIIb and a 1:1 Langmuir binding model for the dissociation constants for the other FcγRs (Table 2).

[2] = biological target: T1, human FcγRIIa R extracellular domain; experiment: SPR; KD of G1d divided by KD of this antibody
Description: as §1

[3] = biological target: T6, human FcγRIa extracellular domain (human, UniProt P12314 16-292); experiment: SPR; KD of G1d divided by KD of this antibody
T6 construct: extracellular domain; also called hFcγR Ia
T6 sequence (P12314 16-292): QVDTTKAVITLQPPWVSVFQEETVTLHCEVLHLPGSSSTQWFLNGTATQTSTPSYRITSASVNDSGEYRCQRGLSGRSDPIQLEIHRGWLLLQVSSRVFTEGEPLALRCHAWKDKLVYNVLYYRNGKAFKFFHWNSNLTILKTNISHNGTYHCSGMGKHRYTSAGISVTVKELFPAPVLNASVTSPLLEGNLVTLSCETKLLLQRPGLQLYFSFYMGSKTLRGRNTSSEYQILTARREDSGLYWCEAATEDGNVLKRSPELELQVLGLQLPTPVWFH
Description: as §1

[4] = biological target: T2, human FcγRIIa H extracellular domain; experiment: SPR; KD of G1d divided by KD of this antibody
Description: as §1

[5] = biological target: T3, human FcγRIIb extracellular domain; experiment: SPR; KD of G1d divided by KD of this antibody
Description: as §1

[6] = biological target: T7, human FcγRIIIa V extracellular domain (human, UniProt P08637 17-208); experiment: SPR; KD of G1d divided by KD of this antibody
T7 construct: extracellular domain; also called hFcγR IIIa V; FcγRIIIa allotype V158
T7 sequence (P08637 17-208 F176V): as the sequence (P08637 17-208) above, with F160V counted along it
Description: as §1

[7] = biological target: T5, human FcγRIIIa F extracellular domain; experiment: SPR; KD for hFcγRIIb divided by KD for this FcγR
Description: as §1

[8] = biological target: T1, human FcγRIIa R extracellular domain; experiment: SPR; KD for hFcγRIIb divided by KD for this FcγR
Description: as §1

[9] = biological target: T2, human FcγRIIa H extracellular domain; experiment: SPR; KD for hFcγRIIb divided by KD for this FcγR
Description: as §1

[10] = biological target: T7, human FcγRIIIa V extracellular domain; experiment: SPR; KD for hFcγRIIb divided by KD for this FcγR
Description: as §1

[11] = biological target: T7, human FcγRIIIa V extracellular domain; experiment: SPR (Biacore 8K+), antibody captured, FcγR as analyte, 25 C, 1:1 Langmuir model
Description: as §1

[12] = biological target: T4, hFcγRIIaH on Jurkat effector cells; experiment: cell-based or functional assay
[13] = biological target: hFcγRIIIaV on Jurkat effector cells (human, UniProt P08637 17-254); experiment: cell-based or functional assay
hFcγRIIIaV on Jurkat effector cells, sequence (P08637 17-254, form in doubt): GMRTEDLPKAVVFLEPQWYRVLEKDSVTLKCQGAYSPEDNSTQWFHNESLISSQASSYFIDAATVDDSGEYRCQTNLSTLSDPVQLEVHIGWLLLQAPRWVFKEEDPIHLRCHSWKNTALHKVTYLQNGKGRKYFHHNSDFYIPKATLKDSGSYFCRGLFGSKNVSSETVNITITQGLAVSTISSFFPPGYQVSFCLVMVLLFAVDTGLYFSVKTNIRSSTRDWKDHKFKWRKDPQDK

[14] = biological target: T3, human FcγRIIb extracellular domain; experiment: SPR (Biacore 8K+), antibody captured, FcγR as analyte, 25 C, steady state affinity model
Description: as §1

Binder | Relative value to KD between G1d and hFcgRs [1] [times] | Relative value to KD between G1d and hFcgRs [2] [times] | Relative value to KD between G1d and hFcgRs [3] [times] | Relative value to KD between G1d and hFcgRs [4] [times] | Relative value to KD between G1d and hFcgRs [5] [times] | Relative value to KD between G1d and hFcgRs [6] [times] | A/I ratio (KD for FcγRIIb divided by KD for each FcγR) [7] [ratio] | A/I ratio (KD for FcγRIIb divided by KD for each FcγR) [8] [ratio] | A/I ratio (KD for FcγRIIb divided by KD for each FcγR) [9] [ratio] | A/I ratio (KD for FcγRIIb divided by KD for each FcγR) [10] [ratio] | Kd [11] [nM] | EC50 of reporter gene induction (ADCP Reporter Bioassay, Hepa1-6/hEREG target cells) [12] [ng/mL] | EC50 of reporter gene induction (ADCC Reporter Bioassay, Hepa1-6/hEREG target cells) [13] [ng/mL] | Kd [14] [nM]
B1 | 1970 | 13.2 | 3.2 | 15 | 2.8 | 695 | 2350 | 28.1 | 47.2 | 6850 | 0.516 | 17.1 | 1.07 | 
B2 | 44.7 | 24.7 | 6.2 | 16.4 | 8 | 15.1 | 18.9 | 18.6 | 18.2 | 52.6 |  | 14.9 | 3.7 | 
B3 |  |  |  | 1.1 | 1.8 |  |  |  |  |  | 19 |  |  | 5650
